Test: soluble on expression in E. coli; label from the status in PepcDB or PDB records

| Sequence | soluble on expression in E. coli |
| --- | --- |
| SPSKVQELSVYEINELDRHSPKILKNAFSLMFGLGDLVPFTNKLYTGDLKKRVGITAGLCVVIEHVPEKKGERFEATYSFYFGDYGHLSVQGPYLTYEDSFLAITGGAGIFEGAYGQVKLQQLVYPTKLFYTFYLKGLANDLPLELTGTPVPPSKDIEPAPEAKALEPSGVISNYTN | not soluble |
| SVCAEAYNPDEEEDDAESRIIHPKTDDQRNRLQEACKDILLFKNLDPEQMSQVLDAMFEKLVKEGEHVIDQGDDGDNFYVIDRGTFDIYVKCDGVGRCVGNYDNRGSFGELALMYNTPRAATITATSPGALWGLDRVTFRRIIVKNNAKKRKMYESFIESLPFLKSLEVSERLKVVDVIGTKVYNDGEQIIAQGDSADSFFIVESGEVRITMKRKGKSDIEENGAVEIARCLRGQYFGELALVTNKPRAASAHAIGTVKCLAMDVQAFERLLGPCMEIMKRNIATYEEQLVALFGTNMDIVEPTA | soluble |
| MPVGRREQIVDCRSVMGLGEGGGLAQRGTFAEALKNDVVVVAMSPGRRHITKPVCEITYGIREAGIQTSVLVLNAGSGIPHDAPRGALGSTFGIKPEEAEQINRHKLCVVHFGNVISHIVYKAGLLLKYVEIPTIIVCQAPVDMEDLAKYGIKTRDVMPLEPKTKGTVVDIVTGVIRGESCPQTKIDEVIRKIKLHLNLNLEHHHHHH | soluble |
| MYELTEDFKLRKITKYELDGIDEREDLLVIPPSSKAGPCGNACLFCYLLQNPPEMIYKVPRHDTLNDPDLENRIRYARKHYDLWIRVTDTSGNIKFDENRIKSLYDAGLDEIQISVHTTKKDVRARLMRNRQAGKLIDLLPLVAKHFRTIADIILTPGFNVEDIGEIIEDLDSMGVHEVRLFPVGVTRYNKFGVRPLTREELSYVKGIALEKDKELAIKVVIPPIFLALLGEFTTGLEPFDIEPDFPTYIFTGELAYQEMKRLFPRVNVIMVKNEFFGGNIGSAGLLTGRDILREVEKLPEVDLGLIILPELMFYGDMTLDGWRRQELFSKILIEKGYIVETALEPTEIPRVIEKVTL | not soluble |
| MGSDKIHHHHHHMSFSGFEQFIGLVANRYGKPGTPHSEEQHSDYEAGTVLLGSETWHIRTARVTPTKPGAFVAFWMRNEQGEICPFDSSEACAGLLIFVQDESNFGVFRFTREQLEQQGITRSTKRPGKRGFRVYPSWSGNLNAQAKKTQAIQTPSFELLQ | not soluble |
| GYWGCKDLNSVFVYANQAYGELIGLKRAEDCIGRTDFEMPSPTAACAAEFQQQDRYVIETGHSVKVLDIHPYPDGHWHAHIFTKTPWRDSQGKIQGTIFFGQDLT | not soluble |
| MSKTRIAFVGAGNMAASLIGGLRAQGVEASLICASAPGAETRERISTEHGIEVFADNAEAVKGADVVVLAVKPQMMKSVCQALKASLEAHQLIVSVAAGITCASLTQWLGDQPVVRCMPNTPSLLRQGASGLYATDKVSPTQREQAEQLLSAVGVAVWVEQEKHMDAVTAVSGSGPAYFFLMMEAMTAAGVKLGLPEDIAKKLTLQTALGSALIATGSNVDAGELRRRVASPGGTTEAAIKAFQAGGFEALVETALTAADHRAAELAEQLGKLEHHHHHH | not soluble |
| MGSDKIHHHHHHVATYNERLFDGKSFRSKLHYARYLWVNSWIKRWELPSYSMLELGCYDGKTIDFLSNKPATYAGYDANWEGGLDIAKTKWSMHPDYSFHTCEKPADFSADDSMYEVSVCLETLEHIPAADLEAYIVQLSKKTKQYCLVSVPNEKGPVLFFKHIIKSITQEKAQTEAYTLKEFLYGSIGRLDKVARRDCGHKGFDYDALAVLLKKYFTILKTEAIPYPAIPHALGFNVGFILKKN | not soluble |
| MGSDKIHHHHHHMTTLDALRVFVEVVRAGSFTAAARRLSISKSLASKRVAALEDELSVNLLNRSTRSLRLTEAGQIYYEHGLRVIEELQSAEAQVQSVTSQPRGQLKVSAQVSFGFMYLAAPTTAFMRRYPDVSVEILLEDQRFEPIDDSVDLAIRMGPLPPSSLVSRPLCKVVYGLYAAPDYLARAGRPLHPRDIADYDTVFYGNYDLGAHWRFSLNGQPLDIEPNSRLVINNLLGVVEAAKSGFGLAYLPTFAARAAVEEGQLIPLLQPYWNEHGSMLVLFRSRKYLPDKTRAYLDFITDWFREHLAL | not soluble |

Source: the DeepSol protein solubility set
